Experimental data published in patent US20230113734A1 (CELLTRION, published 2023).
Changes are numbered by the printed parent chain.

T1: HCoV-HKU1 S1 (HCoV-HKU1, UniProt Q5MQD0 13-760)
T1 construct: domain: S1
T1 sequence: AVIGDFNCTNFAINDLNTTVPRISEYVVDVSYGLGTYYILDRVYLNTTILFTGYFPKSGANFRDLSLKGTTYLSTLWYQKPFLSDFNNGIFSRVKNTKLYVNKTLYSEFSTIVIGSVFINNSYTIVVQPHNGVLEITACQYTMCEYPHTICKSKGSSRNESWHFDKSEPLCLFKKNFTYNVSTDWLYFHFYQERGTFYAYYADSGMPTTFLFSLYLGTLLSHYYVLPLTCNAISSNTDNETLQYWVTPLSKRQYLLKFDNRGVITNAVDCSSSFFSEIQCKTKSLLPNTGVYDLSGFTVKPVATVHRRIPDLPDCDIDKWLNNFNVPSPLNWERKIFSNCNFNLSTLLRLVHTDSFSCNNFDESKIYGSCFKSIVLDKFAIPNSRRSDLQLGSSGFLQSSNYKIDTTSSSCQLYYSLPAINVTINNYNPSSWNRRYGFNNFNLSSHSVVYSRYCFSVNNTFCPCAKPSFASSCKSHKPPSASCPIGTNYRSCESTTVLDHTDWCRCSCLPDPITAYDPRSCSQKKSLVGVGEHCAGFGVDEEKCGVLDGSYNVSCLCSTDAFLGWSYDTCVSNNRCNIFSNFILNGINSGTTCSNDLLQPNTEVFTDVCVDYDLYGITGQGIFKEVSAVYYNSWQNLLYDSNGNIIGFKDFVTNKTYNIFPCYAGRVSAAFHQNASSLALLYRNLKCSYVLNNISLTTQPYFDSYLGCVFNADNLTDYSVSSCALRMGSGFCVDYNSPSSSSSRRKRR

B1: No. 266 scFv-Fc antibody fragment (scFv, V domains shown)
VH: EVQLVESGGGLVQPGGSLRLSCAASGFTVSSNYMTWVRQAPGKGLEWVSVIYSGGSTFYADSVKGRFTISRDNSKNTLYLQMNSLRAEDTAVYYCARDLVVYGMDVWGQGTTVTVSS
VL: ELELTQPPSVSVAPGKTARITCGGNNIGSKSVHWYQQKPGQAPVLVIYYDSDRPSGIPERFSGSNSGNTATLTISRVEAGDEADYYCQVRDSSSDHPVFGGGTKVTVL
B2: No. 268 scFv-Fc antibody fragment (scFv, V domains shown)
VH: B1 VH with E1Q, E6Q, L11V, G16R
VL: ELELTQPPSVSGAPGQRVTISCTGSDSNIGAGYDVHWYQQLPGTAPKLLIYNNNNRPSGVPDRFSGSKSGTSASLAITGLQAEDEADYFCQSSDSGLTGWVFGGGTKLTVL
B3: No. 276 scFv-Fc antibody fragment (scFv, V domains shown)
VH: B1 VH with E1Q, E6Q
VL: ELELTQPPSASGAPGQRVTISCSGSSSNIGGSDVGWYQHLPGMAPRLLIYKSNQRPSGVPDRFSASKSGTSASLAISGLQSEDEGDYYCATWDDRLNWVFGGGTKVTVL
B4: No. 139 antibody (full IgG) (antibody, V domains shown)
VH: QITLKESGPTLVKPTQTLTLTCSFSGFSLSTSGVGVGWIRQPPGKALEWLALIDWDDNKYHTTSLKTRLTISKDTSKNQVVLTMTNMDPVDTATYYCARIPGFLRYRNRYYYYGMDVWGQGTTVTVSS
VL: ELVLTQPPSVSAAPGQKVTISCSGSSSNIGNNYVSWYQQLPGTAPKLLIYDNNKRPSGIPDRFSGSKSGTSATLGITGLQTGDEADYYCGTWDSSLSAGVFGGGTELTVL
notes: also called CT-P59

Experiments:
[1] = molecular target: SARS-CoV-2 S protein (spike protein) (SARS-CoV-2, UniProt P0DTC2 16-1213); assay: ELISA, S proteins on plate
HCoV-HKU1 S1 = molecular target: T1, HCoV-HKU1 S1; assay: Octet binding specificity analysis (FIG. 10)

| Binder | Binding ability [1] | binding result (HCoV-HKU1 S1) |
| --- | --- | --- |
| B1 | 0.8 relative to positive control antibody |  |
| B2 | 1.09 relative to positive control antibody |  |
| B3 | 1 relative to positive control antibody |  |
| B4 |  | no binding |
